The values that follow come from patent US20230002728A1, “STEM CELL FATE ENGINEERING METHODS” (Wisconsin Alumni Research Foundation, priority 2021, published 2023).

Assay type in all cases: cell-based, human
Assay [1] relates to H9 hESCs. In words: ALK inhibitor test on BMP4 patterns (BRA immunostaining, day 2). Particulars: 1 μM A83-01, 10 μM SB-431542 or 2 μM LDN-212854 added for the initial 24 h. On the procedure: For localized mesendoderm differentiation, 2-2.5 ng/μl BMP4 solution was placed with various patterns on different substrates. For glass surfaces, 1.5 ng/μl BMP4 solution was used. 5 ng/μl noggin solution was placed as a droplet to show an inhibitory effect of noggin on BMP4-induced mesendoderm differentiation. After washing, substrate was coated with Matrigel® for 2 hours as described above. Glass was coated with Matrigel® overnight. 0.025 mg/ml Synthemax (Corning, 3535) (final concentration, diluted in water) was added to a washed TC-treated plate and the plate was incubated for 2 hours at room temperature prior to cell seeding. 5 μg/ml truncated recombinant human vitronectin (Gibco, A14700) diluted in PBS was added to a washed TC-treated plate and the plate was incubated for 1 hour at room temperature prior to cell seeding. After ECM coating, the ECM solution was aspirated and hPSCs were singularized using Accutase (10 min incubation at 37° C.), resuspended in mTeSR1 supplemented with 5 μM Y-27632, and seeded at 5×10^5 to about 1×10^6 cells/cm^2 on coated substrates (day 0). […]
(§1) For immunostaining of other protein markers, cells were fixed in 4% paraformaldehyde (Electron Microscopy Sciences, 15710-S) in PBS for 15 min at room temperature, washed with PBS three times, and incubated in diluted primary antibodies in 5% nonfat dry milk (Santa Cruz Biotechnology, sc-2324)/0.4% Triton X-100 (Fisher Scientific, BP151-500) PBS overnight at 4° C. […] After secondary antibody staining, the cells were washed with PBS three times, incubated in 2 μg/ml Hoechst 33342 diluted in PBS for 5 min at room temperature, washed with PBS two times, and analyzed under the fluorescence microscope.
Next, BMP4 solution was placed on TC-treated plates in various patterns (droplet, letters, circle, heart, and star), and hPSCs seeded onto the substrate in mTeSR1 maintenance medium. […] Since the presence of inhibitory morphogens is also important in developmental patterning, a BMP inhibitor, noggin, was evaluated for antagonism to localized BMP4-induced mesendoderm differentiation. […]

The subject of assay [2] is H9 hESCs. In words: Noggin droplet pattern, inhibitory effect on BMP4-induced mesendoderm differentiation (BRA immunostaining). Particulars: 5 ng/μl noggin droplet on TC-treated PS; mTeSR1 with 10 ng/ml BMP4, 2 days. The procedure:
For localized mesendoderm differentiation, 2-2.5 ng/μl BMP4 solution was placed with various patterns on different substrates. For glass surfaces, 1.5 ng/μl BMP4 solution was used. 5 ng/μl noggin solution was placed as a droplet to show an inhibitory effect of noggin on BMP4-induced mesendoderm differentiation. After washing, substrate was coated with Matrigel® for 2 hours as described above. Glass was coated with Matrigel® overnight. 0.025 mg/ml Synthemax (Corning, 3535) (final concentration, diluted in water) was added to a washed TC-treated plate and the plate was incubated for 2 hours at room temperature prior to cell seeding. […]
as §1, with “microscope. […]” for “microscope.”

The subject of assay [3] is H9 hESCs. In words: Localized definitive endoderm differentiation of hPSCs on adsorbed activin A patterns (SOX17/FOXA2 immunostaining). On the procedure: For immunostaining of other protein markers, cells were fixed in 4% paraformaldehyde (Electron Microscopy Sciences, 15710-S) in PBS for 15 min at room temperature, washed with PBS three times, and incubated in diluted primary antibodies in 5% nonfat dry milk (Santa Cruz Biotechnology, sc-2324)/0.4% Triton X-100 (Fisher Scientific, BP151-500) PBS overnight at 4° C. Then, the cells were washed with PBS three times and incubated in diluted secondary antibody in 5% nonfat dry milk/0.4% Triton X-100 PBS for 30 min at room temperature. After secondary antibody staining, the cells were washed with PBS three times, incubated in 2 μg/ml Hoechst 33342 diluted in PBS for 5 min at room temperature, washed with PBS two times, and analyzed under the fluorescence microscope.
For localized definitive endoderm differentiation, 25 ng/μl activin A solution was placed with various patterns on a TC-treated plate. Matrigel® coating and hPSC seeding was performed as the same way described above. Medium was changed daily with RPMI1640 medium supplemented with 2% FBS. For the ALK inhibitor test, 1 μM A83-01 (Tocris, 2939), 10 μM SB-431542 (Tocris, 1614), or 2 μM LDN-212854 (Tocris, 6151) was added to mTeSR1 at day 0. […]

The subject of assay [4] is H9 hESC-derived cardiac progenitor cells (CPCs). In words: Localized EpiC differentiation of hPSC-derived cardiac progenitors on morphogen droplets (WT1 immunostaining). Particulars: droplets on TC-coated PS plate, 7d after cardiac progenitor seeding. On the procedure: For localized EpiC differentiation, BMP4 (2 ng/μl)+Wnt3a (40 ng/μl) solution was placed in PDMS stencil masks either on a TC-treated plate or an ibidi 35 mm polymer dish. Matrigel® coating was performed as described above. Cryopreserved CPCs were thawed and seeded at 500,000-550,000 cells/cm^2 in LaSR medium (advanced DMEM/F12 (Gibco, 12634-010) supplemented with 60 μg/ml ascorbic acid (Sigma, A8960) and 2.5 mM Glutamax (Gibco, 35050-061)) supplemented with 5 μM Y-27632). Medium was changed daily with fresh LaSR medium until analysis. Time lapse imaging of CPCs derived from H9-hTNNT2-GFP hESC during localized EpiC differentiation was performed using a fluorescence microscope equipped with a heating stage top incubator. 18 days after CPC seeding, cells cultured on an ibidi polymer dish were immunostained and imaged using a confocal microscope (Nikon, A1R-SI+) for the analysis of sarcomere structure.
Spatial organization of cell fate commitment is important throughout development. […] These cardiac progenitors can further differentiate into CMs without any specific external signaling factors and can also differentiate into EpiCs upon activation of canonical Wnt signaling (Bao et al. (2016) Nature biomed. Eng. 1, 1-12).

For `NC(=O)c1ccc(-c2nc(-c3ccc4c(c3)OCO4)c(-c3ccccn3)[nH]2)cc1` [SB431542], the “BRA expression in cells on the BMP4-patterned area” value in assay [1] is “suppressed BRA expression”.
`c1cc(-c2cnn3cc(-c4ccc(N5CCNCC5)cc4)cnc23)c2cccnc2c1` [LDN-212854]: the “BRA expression in cells on the BMP4-patterned area” value in assay [1] was “suppressed BRA expression”.
Same read-out and setting: the value for `Cc1cccc(-c2nn(C(=S)Nc3ccccc3)cc2-c2ccnc3ccccc23)n1` [A83-01] was “suppressed BRA expression”.

B1: noggin: human recombinant noggin (R&D Systems, 6057-NG-025), a BMP inhibitor (protein, UniProt Q13253 28-232, looked up)
Noggin: QHYLHIRPAPSDNLPLVDLIEHPDPIFDPKEKDLNETLLRSLLGGHYDPGFMATSPPEDRPGGGGGAAGGAEDLAELDQLLRQRPSGAMPSEIKGLEFSEGLAQGKKQRLSKKLRRKLQMWLWSQTFCPVLYAWNDLGSRFWPRYVKVGSCFSKRSCSVPEGMVCKPSKSVHLTVLRWRCQRRGGQRCGWIPIQYPIISECKCSC
For the molecule B1, the “effect on BMP4-induced mesendoderm differentiation (BRA expression)” value in assay [2] is “inhibited BMP4-induced mesendoderm differentiation”.

B2: activin A: human recombinant activin A (R&D Systems, 338-AC-010), morphogen (protein, UniProt P08476 311-426, looked up)
Inhibin beta A chain: GLECDGKVNICCKKQFFVSFKDIGWNDWIIAPSGYHANYCEGECPSHIAGTSGSSLSFHSTVINHYRMRGHSPFANLKSCCVPTKLRPMSMLYYDDGQNIIKKDIQNMIVEECGCS
Turning to B2, the “endoderm differentiation (patterned SOX17 expression)” value in assay [3] (25 ng/μl activin A adsorbed on TC-treated plate, day 3) is listed as “induced localized endoderm differentiation”. Further, the “cells expressing SOX17 and FOXA2 on the patterned area” value in assay [3] (day 5 of differentiation) was “almost all of the cells”.

B3: Wnt3a: human recombinant Wnt3a (R&D Systems, 5036-WN-010), morphogen (protein, UniProt P56704 19-352, looked up)
Protein Wnt-3a: SYPIWWSLAVGPQYSSLGSQPILCASIPGLVPKQLRFCRNYVEIMPSVAEGIKIGIQECQHQFRGRRWNCTTVHDSLAIFGPVLDKATRESAFVHAIASAGVAFAVTRSCAEGTAAICGCSSRHQGSPGKGWKWGGCSEDIEFGGMVSREFADARENRPDARSAMNRHNNEAGRQAIASHMHLKCKCHGLSGSCEVKTCWWSQPDFRAIGDFLKDKYDSASEMVVEKHRESRGWVETLRPRYTYFKVPTERDLVYYEASPNFCEPNPETGSFGTRDRTCNVSSHGIDGCDLLCCGRGHNARAERRREKCRCVFHWCCYVSCQECTRVYDVHTCK
As to B3, in assay [4], the “EpiC differentiation (WT1 expression)” value is listed as “limited if any EpiC differentiation”.
